# Results: paper PMC7809406, “Structure of a full-length bacterial polysaccharide co-polymerase” (Nature Communications, 2021)
# B1: N-terminal truncated WzzB, missing residues 1-15 (truncated E16M variant) (domain or fragment, E. coli K12, UniProt P76372 16-326, looked up)
# chain: MQIDLIDLLVQLWRGKMTIIISVIVAIALAIGYLAVAKEKWTSTAIITQPDVGQIAGYNNAMNVIYGQAAPKVSDLQETLIGRFSSAFSALAETLDNQEEREKLTIEPSVKNQQLPLTVSYVGQTAEGAQMKLAQYIQQVDDKVNQELEKDLKDNIALGRKNLQDSLRTQEVVAQEQKDLRIRQIQEALQYANQAQVTKPQIQQTGEDITQDTLFLLGSEALESMIKHEATRPLVFSPNYYQTRQNLLDIESLKVDDLDIHAYRYVMKPMLPIRRDSPKKAITLILAVLLGGMVGAGIVLGRNALRNYNAK
# notes: WzzB of E. coli K12 missing the first 15 amino acids; a start codon was introduced at position 16 (E16M); Same vector and non-cleavable C-terminal 8×His tag as m1; Virtually all particles are dimers of octamers; also called N-terminally truncated WzzB; N-terminally truncated variant; source: E. coli C41, membranes solubilized with 1% DDM, purified (Ni-NTA, Superdex 200 SEC); not shown: 8×His, …
# B2: Full-length WzzB polysaccharide co-polymerase of E. coli (natural protein, E. coli K12, UniProt P76372 1-326, looked up)
# chain: MRVENNNVSGQNHDPEQIDLIDLLVQLWRGKMTIIISVIVAIALAIGYLAVAKEKWTSTAIITQPDVGQIAGYNNAMNVIYGQAAPKVSDLQETLIGRFSSAFSALAETLDNQEEREKLTIEPSVKNQQLPLTVSYVGQTAEGAQMKLAQYIQQVDDKVNQELEKDLKDNIALGRKNLQDSLRTQEVVAQEQKDLRIRQIQEALQYANQAQVTKPQIQQTGEDITQDTLFLLGSEALESMIKHEATRPLVFSPNYYQTRQNLLDIESLKVDDLDIHAYRYVMKPMLPIRRDSPKKAITLILAVLLGGMVGAGIVLGRNALRNYNAK
# notes: WzzB, polysaccharide co-polymerase (O-antigen chain length regulator), amplified from E. coli K12 genomic DNA; full-length gene; Integral membrane protein in a DDM micelle; The 8×His tag is non-cleavable (modified pWaldo vector); About 25% of the particles are dimers of the octamer; also called native protein; polysaccharide co-polymerase (PCP) Wzz; source: E. coli C41, membranes solubilized with …
# Target: the molecule itself
# Test: cryo-EM structure; single-particle analysis of SEC population 1 in DDM (25 mM TRIS pH 8.0, 100 mM NaCl, 3% glycerol, 0.5 mM TCEP, 0.02% DDM), 3.0 mg/mL; protomers to octamer; maps with C1 and C8 symmetry
row,Protein,stoichiometry N
1,B1,8
2,B2,8
